Data on four molecules can be found in PMC9931213, “Structural basis for ATG9A recruitment to the ULK1 complex in mitophagy initiation” (Science Advances, 2023).

Sequences and labels used below:
B1: ATG13^HORMA (1–197):TwinStrep-Flag (TSF)–ATG101 complex (complex, human)
chain 1: METDLNSQDRKDLDKFIKFFALKTVQVIVQARLGEKICTRSSSSPTGSDWFNLAIKDIPEVTHEAKKALAGQLPAVGRSMCVEISLKTSEGDSMELEIWCLEMNEKCDKEIKVSYTVYNRLSLLLKSLLAITRVTPAYRLSRKQGHEYVILYRIYFGEVQLSGLGEGFQTVRVGTVGTPVGTITLSCAYRINLAFMS
chain 2: MNCRSEVLEVSVEGRQVEEAMLAVLHTVLLHRSTGKFHYKKEGTYSIGTVGTQDVDCDFIDFTYVRVSSEELDRALRKVVGEFKDALRNSGGDGLGQMSLEFYQKKKSRWPFSDECIPWEVWTVKVHVVALATEQERQICREKVGEKLCEKIINIVEVMNRHEYLPKMPTQSEVDNVFDTGLRDVQPYLYKISFQITDALGTSVTTTMRRLIKDTLAL
notes: ATG101, human; Heterodimer of two HORMA domains formed beforehand by co-expression; also called ATG13^HORMA:ATG101; source: HEK GnTi- cells, transfected, purified (Strep-Tactin resin, Superdex 200); not shown: TwinStrep-Flag (TSF), N-terminal, kept
B2: ATG13^HORMA (1–197), no tag (domain or fragment, human, UniProt O75143 1-197, looked up)
chain: METDLNSQDRKDLDKFIKFFALKTVQVIVQARLGEKICTRSSSSPTGSDWFNLAIKDIPEVTHEAKKALAGQLPAVGRSMCVEISLKTSEGDSMELEIWCLEMNEKCDKEIKVSYTVYNRLSLLLKSLLAITRVTPAYRLSRKQGHEYVILYRIYFGEVQLSGLGEGFQTVRVGTVGTPVGTITLSCAYRINLAFMS

Details in all cases: both partners purified
Assay [1] concerns the target T1, MBP-ATG9A (full-length autophagy-related protein 9A) (human, UniProt Q7Z3C6 1-839).
T1 construct: In detergent (DDM/CHS) micelles; also called wild-type MBP-ATG9A; ATG9A wild type (WT); source: HEK GnTi- cells, transfected; not shown: MBP, N-terminal, kept
T1 sequence (looked up): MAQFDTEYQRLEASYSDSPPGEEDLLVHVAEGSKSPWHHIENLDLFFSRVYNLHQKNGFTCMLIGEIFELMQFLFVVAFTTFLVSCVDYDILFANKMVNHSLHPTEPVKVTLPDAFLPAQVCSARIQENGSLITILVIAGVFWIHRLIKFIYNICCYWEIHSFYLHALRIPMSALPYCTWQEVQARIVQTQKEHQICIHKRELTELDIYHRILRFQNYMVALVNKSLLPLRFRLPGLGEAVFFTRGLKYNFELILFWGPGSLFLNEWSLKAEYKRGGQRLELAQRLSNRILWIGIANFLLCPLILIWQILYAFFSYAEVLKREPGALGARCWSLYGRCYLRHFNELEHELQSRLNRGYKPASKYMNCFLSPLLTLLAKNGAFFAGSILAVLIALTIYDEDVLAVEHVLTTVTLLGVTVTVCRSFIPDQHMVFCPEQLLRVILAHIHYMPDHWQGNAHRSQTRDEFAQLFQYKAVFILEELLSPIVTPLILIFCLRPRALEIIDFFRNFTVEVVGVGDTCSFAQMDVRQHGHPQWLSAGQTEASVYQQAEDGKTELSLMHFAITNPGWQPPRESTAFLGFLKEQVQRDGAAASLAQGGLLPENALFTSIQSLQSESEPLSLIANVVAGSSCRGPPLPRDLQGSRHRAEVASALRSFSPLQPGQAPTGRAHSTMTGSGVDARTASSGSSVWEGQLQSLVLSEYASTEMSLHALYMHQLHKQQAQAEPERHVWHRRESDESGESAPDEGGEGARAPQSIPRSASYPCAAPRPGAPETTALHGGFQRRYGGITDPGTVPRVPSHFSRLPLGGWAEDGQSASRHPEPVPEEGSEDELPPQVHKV
As to the kind of experiment: pull-down; recombinant MBP-ATG9A constructs (1.2 μM) on amylose resin with TSF-ATG101:ATG13 (1–197) complex (3 μM), 4°C overnight, ITC buffer (25 mM Hepes pH 7.5, 150 mM NaCl, 1 mM MgCl2, 1 mM TCEP); full-length MBP-ATG9A in DDM/CHS micelles (0.05% DDM/CHS); SDS-PAGE.

For assay [2], the target named is T2, ATG101 (1–198) as in the crystallised fusion (human, UniProt Q9BSB4 1-198).
T2 construct: ATG101, human, residues 1-198; written on its own for the pairs that touch; also called ATG101 HORMA domain; source: HEK 293GnTi cells, as the C-terminal part of the fusion m32
T2 sequence (looked up): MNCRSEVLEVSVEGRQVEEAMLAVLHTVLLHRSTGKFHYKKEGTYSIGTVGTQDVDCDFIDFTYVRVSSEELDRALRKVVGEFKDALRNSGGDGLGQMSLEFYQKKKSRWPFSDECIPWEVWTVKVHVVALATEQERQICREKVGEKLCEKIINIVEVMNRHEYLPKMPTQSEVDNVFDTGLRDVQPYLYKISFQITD
As to the kind of experiment: crystal structure; ATG9 HDIR (828–839)–fused ATG101 (1–198):ATG13 (1–197) complex, 6 mg/ml; sitting drop, 288 K, 0.1 M Hepes pH 7.5, 0.2 M NaCl, 12% PEG8000; 2.4 Å.

Assay [3] addresses B1. The experiment in a line: pull-down; recombinant MBP-ATG9A constructs (1.2 μM) on amylose resin with TSF-ATG101:ATG13 (1–197) complex (3 μM), 4°C overnight, ITC buffer (25 mM Hepes pH 7.5, 150 mM NaCl, 1 mM MgCl2, 1 mM TCEP); full-length MBP-ATG9A in DDM/CHS micelles (0.05% DDM/CHS); SDS-PAGE.
In assay [4] the target is B2. As to the kind of experiment: crystal structure; ATG9 HDIR (828–839)–fused ATG101 (1–198):ATG13 (1–197) complex, 6 mg/ml; sitting drop, 288 K, 0.1 M Hepes pH 7.5, 0.2 M NaCl, 12% PEG8000; 2.4 Å.

As for B1, the binding result in assay [1] is “binds”.

Consider B2, for which, in assay [2], the binding result is “binds”.

B3: MBP-ATG9A (692–839), monomeric (domain or fragment, human, UniProt Q7Z3C6 692-839, looked up)
chain: QLQSLVLSEYASTEMSLHALYMHQLHKQQAQAEPERHVWHRRESDESGESAPDEGGEGARAPQSIPRSASYPCAAPRPGAPETTALHGGFQRRYGGITDPGTVPRVPSHFSRLPLGGWAEDGQSASRHPEPVPEEGSEDELPPQVHKV
notes: source: HEK GnTi- cells, transfected, purified (amylose resin, Superose 6); not shown: MBP, N-terminal, kept
On to B3, for which the binding result in assay [3] is “binds”.

B4: ATG9A HDIR (828–839)–GSDEA–ATG101 (1–198) fusion construct (other, human)
chain: SEDELPPQVHKVGSDEAMNCRSEVLEVSVEGRQVEEAMLAVLHTVLLHRSTGKFHYKKEGTYSIGTVGTQDVDCDFIDFTYVRVSSEELDRALRKVVGEFKDALRNSGGDGLGQMSLEFYQKKKSRWPFSDECIPWEVWTVKVHVVALATEQERQICREKVGEKLCEKIINIVEVMNRHEYLPKMPTQSEVDNVFDTGLRDVQPYLYKISFQITD
notes: flexible linker of five residues; ATG101, human, residues 1-198; also called ATG9A HDIR-ATG101 fusion construct; not shown: GST, N-terminal, cleaved
As to B4, the binding result in assay [4] is listed as “binds”.
